# Laboratory results reported in the DeepSol protein solubility set.
# Assay: soluble on expression in E. coli; label from the status in PepcDB or PDB records
row,Sequence,soluble on expression in E. coli
1,MGELWGNGGGCYSPVPPVMIPFMAYYEKRGDAWRAQIRRKGYPTLSATFDTKAEAQRWAAELEGDMSRARFVDVREAEATSLATALERYESEVTESKKGAKQERVRIKKWMESKFAGKSLASLRSSDMASYRDAEIKAGRSTATVRLDLAVISHLYTVATKDWGIEGLTNPCRALRMPKGSKQRERRPTADELKSLYKAAGEISPELPVIIELAVETAMRRSELVTLRKDQIQGKVAFLEDTKNGERRSVPLSSRARELIEGVPAPIKGGPLFRLKADTVSNYFPLACEKANIQGLRLHDLRHEATSRLFERGFTMMEVASITGHKTLAMLKRYTHLSPQDLAEKLG,not soluble
2,MGFADFFKNFKINKLRTAPSKEEQPSHWVKCPKCYALMYHKEVFSKYSVCLKCHYHFRMKAAERIEFLCDVGSFEEFDKHLRPNDPLNFVDKESYKQRIKKYEKRTNRPSSVISGEAKINRMPLQIVVFDFSFMGGSLGSVEGEKIVRAINRAVAKREALLIVSASGGARMQESTYSLMQMAKTSAALNRLSEAKLPFISLLSDPTYGGVSASFAFLGDLIIAEPGAMIGFAGPRVIKQTIGADLPEGFQTAEFLLEHGLIDMIVHRKDLKKTLSDLIAMMTHKTSKIFLEHHHHHH,soluble
3,MGFSKKSQFEGGLESDGKKWVIAGISIRASLKPVKTKLRAPPEIVTEVEEDCYNEEEECSTTPTAKETKIPELLECPPAPRKRRPALKCRSNVVREFFTPPSDLETVFLRRR,not soluble
4,MGGASSPRIPSRRSAPYFTSLAFFGSSYIKVKNNRNKMLNPTDAASVALSFSVPFQMSGENPLSKLVEHCNKFVPGADIKMKAEPAKPESLLLPTDMNAYSPYLATPNWWVDQTGWPQLYPTVTTASSVDVYQNYLASSQLGGLLSSSVSAVASQLPAGINAQSALNITSQQRTIAKSFQHTKPMASSSSIPSVLTASNSSANSLVSSGSESVSARGTSGSGGTGKYPSSRTANKCECPNCHEIEKFGPNAIAARKRGVHNCHIAGCGKVYNKSSHLKAHLRWHSGERQMKKRSGDSS,not soluble
5,MGGCCSQEGCNTRPRYLPLKCYPGLPMRATRRLDLSAVERALREVQGRFAELSQHFTEPRDPFTDEVLLNVVEGYALIDDYVARGIDLFDLQQLNLMLEINATVLCGSDPARRLEFAPHLAATEAHFFNNVEGGIKDLYNWYCAYRSDSIWKRAAGVYVRILSKPQLFIEGNNRTGSLIVSYLLMRAGLPPFVLSLDNAEGYFNPSSVIRNSAKHGVKALYELPKIKKKYAAFLEAKAPEPGKFFLNGTPVPACEGSRLEHHHHHH,soluble
6,MGGFLVLNSSNNVVRTVPSKKRKHPEYKSKGSQIRELISGIRSDNLREAVRLPQGVDINEWFAMNNFFNQISLLYATLEEFCTQTTCPVMNAGRYEYRWADGTTITKPKTVSAPKYVEYLIDWVETEIDNEAIFPKNPGEPFPPNFEDFVKRILRKLFRVYAHIYYSHFHEIVALNEQAHLNTCFKHFLLFVSEFQLVDKEKEMAPIKSLVETMLDQ,soluble
7,MGGGGGGMEQFNAFKSLLKKHYEKTIGFHDKYIKDINRFVFKNNVLLILLENEFARNSLNDNSEIIHLAESLYEGIKSVNFVNEQDFFFNLAKLEENSRDTLYQNSG,soluble
8,MGGGHHEPFKIPNYSIYSNFRDFPQLAQHEKRLAQIGLKDPWIRNYVYLYDRKYPHVVGQWAHFKKLILPGWKAGVAFTAALIFVEEAYQYKTHGTTSWDGHH,not soluble
9,MGGSHHHHHHGMASALKEKKSQETEVTSTLEQQKICLVLESCLKKNSDEEGSQEKGGDDSQQKFIAHVPVPSQQEIEEALVRRKKMELLQKYASETLQAQSEEARRLLGY,not soluble
10,MGGVFSSASSNQAQITGILQELERTRLEREIALAHLQERRRIAFKIAEEREKFNWIACGGSLVVVLSALSSFHHKNLLHVIPIFPMASFIGYKAHFCYGDQLKKISETSTQLLEESVDALVPLPPTIADVRSRSKQIKEEESSNY,not soluble
11,MGHHHHHHAKAVAPTTGWKQENGMWYFYNTDGSMATGWVQVNGSWYYLNSNGSMKVNQWFQVGGKWYYVNTSGELAVNTSIDGYRVNDNGEWVR,soluble
12,MGHHHHHHGGHMSLMASISSLGVGSGLDLSSILDSLTAAQKATLTPISNQQSSFTAKLSAYGTLKSALTTFQTANTALSKADLFSATSTTSSTTAFSATTAGNAIAGKYTISVTHLAQAQTLTTRTTRDDTKTAIATSDSKLTIQQGGDKDPITIDISAANSSLSGIRDAINNAKAGVSASIINVGNGEYRLSVTSNDTGLDNAMTLSVSGDDALQSFMGYDASASSNGMEVSVAAQNAQLTVNNVAIENSSNTISDALENITLNLNDVTTGNQTLTITQDTSKAQTAIKDWVNAYNSLIDTFSSLTKYTAVDAGADSQSSSNGALLGDSTLRTIQTQLKSMLSNTVSSSSYKTLAQIGITTDPSDGKLELDADKLTAALKKDASGVGALIVGDGKKTGITTTIGSNLTSWLSTTGIIKAATDGVSKTLNKLTKDYNAASDRIDAQVARYKEQFTQLDVLMTSLNSTSSYLTQQFENNSNSKEGGS,soluble
13,MGHHHHHHGSDSEVNQEAKPEVKPEVKPETHINLKVSDGSSEIFFKIKKTTPLRRLMEAFAKRQGKEMDSLRFLYDGIRIQADQAPEDLDMEDNDIIEAHREQIGGDSEVNQEAKPEVKPEVKPETHINLKVSDGSSEIFFKIKKTTPLRRLMEAFAKRQGKEMDSLRFLYDGIRIQADQAPEDLDMEDNDIIEAHREQIGGMFMAKITGSVVSTKKEDSLTGKKLMIVQPIDANGEHVRSEEVACDSVGAGIGEYVLVARGNAARSVFAEPNSAIDSAIIAIVDSFDK,soluble
14,MGHHHHHHSHDVPEMPSIPNPFPELCCSPFTSVLSADLFPKANSRKKQVIKVYSEDETSRALDVPSDITARDVCQLLILKNHYIDDHSWTLFEHLPHIGVERTIEDHELVIEVLSNWGIEEENKLYFRKNYAKYEFFKNP,not soluble
15,MGHHHHHHSHEMLPEIGEEKVAIIAPSPSDHPQFKEILQHYVEQGKEVSPSSVRADTLDEELADLLKKAGVKTLTIAPETASDKLQEVINKGIGDEEVMRAAELASTRFEKVKLYYMVGLPGESFEDVKAILEQALRVKKLVGKVEISVNPLVPKPHTPLQWMGFGGEEELREGISHLKKKLEYLRREARRAGIGADVSGFKEFAIQTILSRGDREVAEML,soluble
16,MGHHHHHHSHGLNSSRNLLIISQKSDQILNYITNGADRGATKIPVLGGHTGHSQNMIMTTLSTHEVPKVQEEIQKIDETAFIVIIPASTVMGRGFSLQKDYKSVPNDFINP,soluble
17,MGHHHHHHSHGQSLIVLQNVGGGEAGPQEMSGVQLQPLRPAPEVTTVQLQPAQEVTTVQLQPAQEVTTVQLQPAQEVTTVQLQPVAGQLSNSSGGAVATEAPNLLVVQSGAAEELLTGPGPGEAGDGEASTGVVQDVLFETLQTDEGLQSVLVLSGADGEQTRLCVQEVETLPPGLTEPPATGPPGQKLLIIRSAPATELLDSSNTWRRHRPRCNFLAPPAV,not soluble
18,MGHHHHHHSHKGLIDEITKKNIQLKKEIQKLETELQEATKEFQIKEDIPETKMKFLSVETPENDSQLSNISCSFQVSSKVPYEIQKGQALITFEKEEVAQNVVSMSKHHVQIKDVNLEVTAKPVPLNSGVRFQVYVEVSKMKINVTEIPDTLREDQMRDKLELSFSKFRNGGGEVDRVDYDRQSGSAVITFVEIGVADKILKKKEYPLYINQTCHRVTVSPYTEIHLKKYQIFSGTSKRTVLLTGMEGIQMDEEIVEDLINIHFQRAKNGGGEVDVVKCSLGQPHIAYFEE,not soluble
19,MGHHHHHHSHKRVVLKLSGEALAGEKGFGINPVIIKSVAEQVAEVAKMDCEIAVIVGGGNIWRGKTGSDLGMDRGTADYMGMLATVMNALALQDSLEQLDCDTRVLTSIEMKQVAEPYIRRRAIRHLEKKRVVIFAAGIGNPYFSTDTTAALRAAEVEADVILMGKNNVDGVYSADPKVNKDAVKYEHLTHIQMLQEGLQVMDSTASSFCMDNNIPLTVFS,not soluble
20,MGHHHHHHSHMAAAFRKAAKSRQREHRERSQPGFRKHLGLLEKKKDYKLRADDYRKKQEYLKALRKKALEKNPDEFYYKMTRVKLQDGVHIIKETKEEVTPEQLKLMRTQDVKYIEMKRVAEAKKIERLKSELHLLDFQGKQQNKHVFFFDTKKEVEQFDVATHLQTAPELVDRVFNRPRIETLQKEKVKGVTNQTGLKRIAKERQKQYNCLTQRIEREKKLFVIAQKIQTRKDLMDKTQKVKVKKETVNSPAIYKFQSRRKR,soluble
